Assay results reported in patent publication US20240317857A1 (AMPSOURCE BIOPHARMA SHANGHAI, published 2024).

T1: His-labeled cynomolgus monkey CD3E (purchased from Acro Biosystems) (cynomolgus monkey, UniProt Q95LI5 22-117)
T1 construct: also called Cynomolgus monkey CD3E antigen; not shown: His label
T1 sequence (looked up): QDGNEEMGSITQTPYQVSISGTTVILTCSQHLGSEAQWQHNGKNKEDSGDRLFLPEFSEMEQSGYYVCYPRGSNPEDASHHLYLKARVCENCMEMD


Assays:
His-labeled human CD3E [1] = target: T2, His-labeled human CD3E (human, UniProt P07766 23-126); assay: ELISA, plate coated with His-labeled human CD3E
T2 construct: also called human CD3E antigen; antigen CD3E; not shown: His label
Description: (§1) A microtiter plate was coated with 0.1 μg/mL His-labeled human or cynomolgus monkey CD3E (purchased from Acro Biosystems) (100 μL/well) overnight at 4° C. The coating solution was discarded, and the microtiter plate was blocked with 1% PBSB (200 μL/well), incubated for 1 h at 37° C. and washed with PBS containing 0.05% Tween-20. The diluted CD3 humanized antibodies AB611 and AB614 with a series of concentrations were added (100 μL/well), incubated for 1 h at 37° C. and washed with 0.05% PBST, and HRP-labeled goat anti-human IgG (H+L) (Jackson Laboratory) was added as the detection antibody and incubated for 1 h at 37° C. The wells were washed three times with 0.05% PBST, added with TMB (100 μL/well) and developed at room temperature for 5 min. 0.2 M H₂SO₄ was added to terminate the reaction, 50 μL/well. Absorption values were read by a microplate reader at double wavelengths 450 nm/620 nm. Plotting was performed by software GraphPad Prism 6 with OD 450 nm/620 nm as the Y-axis and an antibody concentration as the X-axis.

[2] = target: T3, human CD3 on human T cells (human, UniProt P07766 23-207); assay: flow cytometry on human primary T cells
T3 construct: whole, on cells; also called human primary T cells; NFAT-Jurkat cells

[3] = target: T1, His-labeled cynomolgus monkey CD3E …; assay: ELISA, plate coated with His-labeled cynomolgus monkey CD3E
Description: as §1

[4] = target: T3, human CD3 on human T cells; assay: cell-based or functional assay
His-labeled human CD3E [5] = target: T2, His-labeled human CD3E; assay: BLI (Octet), method of Example 3: His-labeled human CD3E on Ni-NTA sensors
Description: The binding affinity constants of the purified murine monoclonal antibodies to antigen CD3E were determined by […] (BLI) with the ForteBio Octet RED&QK system from PALL Corporation. Concentration gradients of a multichannel parallel quantitative analysis were set to 3.125, 6.25, 12.5, 25, 50 and 100 nM, and His-labeled human CD3E (10 μg/mL) was coupled to Ni-NTA sensors.
For example, the experimental method for determining the kinetic constants and affinity equilibrium dissociation constants of the humanized antibodies was as described in Example 3.

T3 sequence (P07766 23-207): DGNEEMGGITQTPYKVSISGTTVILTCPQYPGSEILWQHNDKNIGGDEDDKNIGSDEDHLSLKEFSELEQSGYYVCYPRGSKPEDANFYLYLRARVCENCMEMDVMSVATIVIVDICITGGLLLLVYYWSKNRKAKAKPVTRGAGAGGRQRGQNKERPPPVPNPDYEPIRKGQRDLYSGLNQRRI
T2 sequence (P07766 23-126): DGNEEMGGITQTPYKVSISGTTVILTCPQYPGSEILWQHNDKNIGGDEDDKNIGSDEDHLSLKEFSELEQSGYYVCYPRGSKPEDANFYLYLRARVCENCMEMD

| EC50 (His-labeled human CD3E [1]) [nM] | EC50 [2] [nM] | EC50 [3] [nM] | EC50 of activating T cells (luciferase of NFAT RE reporter Jurkat T cells) [4] [nM] | Kd (His-labeled human CD3E [5]) [nM] | koff (His-labeled human CD3E [5]) [s⁻¹] | kon (His-labeled human CD3E [5]) [M⁻¹ s⁻¹] | Binder |
| --- | --- | --- | --- | --- | --- | --- | --- |
| 0.00913 | 1.18 | 0.00755 | 0.142 | 0.0196 | 1.45e-05 | 741000 | humanized antibody AB614 (antibody, human IgG4 S228P, kappa, V domains shown, Humanized from AP591 CDRs) VH: EVQLLESGGGLVQPGGSLKLSCAASGFTFNTYAMNWVRQAPGKGLEWVGRIRSKINNYATYYADSVKDRFTISRDDSKNTAYLQMNNLKTEDTAMYYCVRHDNFYGSTYSWFADWGQGTLVTVSS VL: ELVVTQEPSLTVSPGGTVTLTCRSSTGVVTTSNYANWVQEKPDHLFTGLIGATNYRAPGTPARFSGSLLGGKAALTLSGVQPEDEAIYFCVLWYSNHWVFGGGTKLTVLR |
| 0.00833 | 0.174 | 0.00483 |  |  |  |  | humanized antibody AB611 (antibody, human IgG4 S228P, kappa, V domains shown, Humanized from AP831 CDRs) VH: EVQLVQSGAEVKKPGSSVKVSCKASGYTFTNNYIHWVKEKPGQGLEWIGWIYPGDGTTKYNEKFKGKTTLASDKSTNTAYMELSSLRSEDTAIYFCTRNNNYYFDYWGQGTTVTVSS VL: DIVMTQSPDSLAVSLGERATMNCKSSQSLFNSRTRKNYLAWYQQKPGESPKLLIYWASTRESGVPDRFSGSGSGTDFTLTISSLQAEDVAVYYCKQSFILRTFGGGTKVEIKR |
